{
  "source": "paper PMC7697860",
  "key": {"[1]": {"molecular_target": "PfPV1 with Strep-tag at the C-terminus (PfPV1-Strep) (Plasmodium falciparum 3D7)", "assay": "negative-stain electron microscopy with 2D classification"}, "[2]": {"molecular_target": "PfPV1 with Strep-tag at the C-terminus (PfPV1-Strep) (Plasmodium falciparum 3D7)", "assay": "[…] (pH 6.8), 200 mM NaCl, 0.5 mL/min"}, "[3]": {"molecular_target": "PfPV1 with Strep-tag at the C-terminus (PfPV1-Strep) (Plasmodium falciparum 3D7)", "assay": "native gel or EMSA"}, "[4]": {"molecular_target": "PfPV1 with Strep-tag at the C-terminus (PfPV1-Strep) (Plasmodium falciparum 3D7)", "assay": "AUC"}},
  "note": "“And” between values parts separate entries of the source, which are not always exact repeats. Identical values can stand only once.",
  "data": [
    {"substance": "PfPV1 with Strep-tag at the C-terminus (PfPV1-Strep) (natural protein)", "values": [
      {"measurement": "stoichiometry N", "setting": "[1]", "value": 4},
      {"measurement": "stoichiometry N", "setting": "[2]", "value": "4 and 3"},
      {"measurement": "stoichiometry N", "setting": "[3]", "value": 3},
      {"measurement": "stoichiometry N", "setting": "[4]", "value": "4 and 3 and 2"},
      {"measurement": "weight fraction w of the component assigned to the tetramer (A4, 222 kDa)", "setting": "[4]", "value": 24, "unit": "%"},
      {"measurement": "weight fraction w of the component assigned to the tetramer (B3, 215 kDa)", "setting": "[4]", "value": 17.5, "unit": "%"},
      {"measurement": "weight fraction w of the component assigned to the trimer (A3, 139 kDa)", "setting": "[4]", "value": 6.8, "unit": "%"},
      {"measurement": "weight fraction w of the component assigned to the trimer (B2, 141 kDa)", "setting": "[4]", "value": 48.1, "unit": "%"}
    ]}
  ]
}
